Measurements reported in PMC4499152.
Where two headings read alike, the source gives them in different places.

Columns and labels:
RPA complex [1] = target: T1, RPA complex (UniProt P27694;P15927;P35244 1-616;1-270;1-121); assay: pull-down
RPA complex [2] = target: T1, RPA complex; assay: pull-down; remark: listed apart in the source

T1 sequence (P27694 whole entry, chain 1 of 3): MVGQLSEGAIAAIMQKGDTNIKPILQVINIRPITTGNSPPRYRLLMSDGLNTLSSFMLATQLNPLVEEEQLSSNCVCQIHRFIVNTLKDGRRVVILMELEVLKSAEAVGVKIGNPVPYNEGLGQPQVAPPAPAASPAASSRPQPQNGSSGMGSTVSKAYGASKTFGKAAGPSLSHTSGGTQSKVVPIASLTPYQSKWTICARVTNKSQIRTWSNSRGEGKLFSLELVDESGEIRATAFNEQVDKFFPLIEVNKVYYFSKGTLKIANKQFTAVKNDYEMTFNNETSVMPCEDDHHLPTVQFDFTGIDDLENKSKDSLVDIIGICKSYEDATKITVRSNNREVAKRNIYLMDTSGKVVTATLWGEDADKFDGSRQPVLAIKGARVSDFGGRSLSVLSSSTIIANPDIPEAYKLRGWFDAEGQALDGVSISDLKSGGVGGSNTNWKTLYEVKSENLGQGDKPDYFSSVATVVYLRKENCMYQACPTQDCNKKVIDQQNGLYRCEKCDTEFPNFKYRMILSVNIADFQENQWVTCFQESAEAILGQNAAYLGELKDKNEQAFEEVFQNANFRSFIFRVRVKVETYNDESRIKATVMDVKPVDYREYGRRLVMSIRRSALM
T1 sequence (P15927 whole entry, chain 2 of 3): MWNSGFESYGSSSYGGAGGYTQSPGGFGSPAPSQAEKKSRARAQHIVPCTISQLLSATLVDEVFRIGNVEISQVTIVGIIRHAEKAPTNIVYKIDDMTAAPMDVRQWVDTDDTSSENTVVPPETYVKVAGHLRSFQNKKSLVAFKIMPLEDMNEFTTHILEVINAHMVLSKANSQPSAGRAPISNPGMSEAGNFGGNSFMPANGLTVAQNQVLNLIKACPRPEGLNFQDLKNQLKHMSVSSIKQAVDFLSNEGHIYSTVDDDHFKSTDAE
T1 sequence (P35244 whole entry, chain 3 of 3): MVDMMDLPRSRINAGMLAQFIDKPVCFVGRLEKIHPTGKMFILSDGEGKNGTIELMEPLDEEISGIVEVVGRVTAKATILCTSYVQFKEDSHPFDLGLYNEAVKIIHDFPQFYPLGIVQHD

Binder	binding result (RPA complex [1])	binding result (RPA complex [2])
TTTGCGTTTGCGTTTGCGTTTGCGTTTGCGTTTGCGTTTGCGTTTGCG (ssDNA) [ssMUT]	binds	
TTAGGGTTAGGGTTAGGGTTAGGGTTAGGGTTAGGGTTAGGGTTAGGG (ssDNA) [ssTEL]		binds
